Here are results for 20 sequences from a protein production outcome set (Wang et al. 2014).
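Note: failed if final PepcDB status was selected cloned or expressed and not failed if soluble or beyond.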

The series is described as follows: label from the status in PepcDB records.
Take “MIRVLFFIRMTMSRTIQRICLFLFCLPVFGSCMKWDYGEMEDFSVSASGLFITNEGNFQYSNATLSYYDPATCEVENEVFYRANGFKLGDVAQSMVIRDGIGWIVVNNSHVIFAIDINTFKEVGRITGFTSPRYIHFLSDEKAYVTQIWDYRIFIINPKTYEITGYIECPDMDMESGSTEQMVQYGKYVYVNCWSYQNRILKIDTETDKVVDELTIGIQPTSLVMDKYNKMWTITDGGYEGSPYGYEAPSLYRIDAETFTVEKQFKFKLGDWPSEVQLNGTRDTLYWINNDIWRMPVEADRVPVRPFLEFRDTKYYGLTVNPNNGEVYVADAIDYQQQGIVYRYSPQGKLIDEFYVGIIPGAFCWK”: the protein production entry is given as “failed”.
In the case of “GTGTQPTIVIGGFVPDATEAVEFQRELFRRHGSVYYLNYARHGFSVEMFFAQLADLVEDLNRRGEKPVIFAISFGCSLLSRFLRERYSGEGLTVGGIVMTSP” it was “failed”.
Consider “RVKESITRTSRAPSVATVGSICDLNLKIPEINSSDMSAHVTSPSGRVTEAEIVPMGKNSHCVRFVPQEMGVHTVSVKYRGQHVTGSPFQFTVGPLGEGG”, for which the protein production entry is on record as “not failed”.
In the case of “MQAKLRLWLTFCVVTPVLLLFGNAGLAEQTPAPKVLKPVTSKAVGVTPRGQVLSLSCSSCHGTDGKSVGIMPSFYGKTPQYIETALLEFKSGKRYSTVMGRHAKGYSDDEIHLIAQYCGIKGQKTK” it was “failed”; in that of “LADGDFIDLDWHGPHQPHAPLVIVLHGLTGSSHSPYVKGLQQALQDRGWASVAVNWRGCSGEPNLLPRSYHSGASEDLAEIVSHLRAQRPLAPLYAVGYSLGGNVLLKYLGESGVASQLEAAAAVSVPFRLDHCADRIGQGFSKVYQAHFMREMLAYVQLKQRHFHARGQHEQLATLERLGQLTNLRTFWDFDGKVTAPLNGFRDAHDYYRRSSSHFFLGQNRTPTLIIHSSDDPFVSSHSLPTARELSPQTRFELHDRGGHVGFVDG”, “failed”; in that of “MFRQLKKNLVATLIAAMTIGQVAPAFADSADTLPDMGTSAGSTLSIGQEMQMGDYYVRQLRGSAPLINDPLLTQYINSLGMRLVSHANSVKTPFHFFLINNDEINAFAFFGGNVVLHSALFRYSDNESQLASVMAHEISHVTQRHLARAMEDQQRSAPLTWVGALGSILLAMASPQAGMAALTGTLAGTRQGMISFTQQNEQEADRIGIQVLQRSGFDPQAMPTFLEKLLDQARYSSRPPEILLTHPLPESRLADARNRANQMRPMVVQSSEDFYLAKARTLGMYNSGRNQLTSDLLDEWAKGNVRQQRAAQYGRALQAMEANKYDEARKTLQPLLAAEPGNAWYLDLATDIDLGQNKANEAINRLKNARDLRTNPVLQLNLANAYLQGGQPQEAANILNRYTFNNKDDSNGWDLLAQAEAALNNRDQELAARAEGYALAGRLDQAISLLSSASSQVKLGSLQQARYDARIDQLRQLQERFKPYTKMLEHHHHHH”, “not failed”.
In the case of “MRTSRVLAGILAATLTVSLAACSQDSSETSSNSSSAASQSSDVSNEAFPVTIEHAFGETTIESKPERIATVGWSNHEVPLALGVTPVGFEKVTWGDDDNNGILPWVEETLSKLGSDEPVLFDATDSIPFEEIANTAPDVILASYSGITQEDYDQLSQIAPVVAYPEIAWGTSLDEMIEMNSKAIGLEQEGKDLIADLDAEVASAIDANPELKDAKPVFAFFDESDFSQIGVYTSIDPRMSFLLDAGVQEASVLKEHSSPDSFYEQVSAENPETFDDVDVIITYGTEDDAANAELLSKMQADPLLSRIPAIAEGKVVFLGANPLAASANESPLSIPWGINDYFAKLAEPLK” it was “failed”; in that of “MLPVQILKDNAQEERGESARLSSFVGAIAIGDLVKSTLGPKGMDKILISGNPESAGGIKVTNDGATILKSIGVDNPAAKVLVDMSMTQDHEVGDGTTSVTVLAAELLKEAEKLVNQRIHPQTIISGYRRALGIAQESLKKSSIESGDNIRDDLLKIARTTLGSKILSQHKEHFAQLAVDAVLRLKGSGNLDAIQIIKKLGGSMNESYLDEGFLLEKLPGMFQPRRVEKAKILIANTPMDTDKVKVFGSRVRVDGVAKVAELEAAEKLKMKEKVDKILAHNCNVFINRQLIYNYPEQLFADAKVMAIEHADFEGIERLALVLGGEIVSTFDSPQTAQFGSCDLIEEIMIGEDRLLRFSGVKLGEACSVVLRGATQQILDESERSLHDALCVLVTHVKESKTVAGAGASEILMSSAIAVEAQKVAGKEALAVEAFGRALAQLPTIICDNAGLDSAELVTRLRAEHANGRHNMGIDIEKGEVADVTKLGVIESYNVKLCMVSSAAEATEQILRVDDIIKAAPRARAQDNRPC”, “not failed”; in that of “MYILIGGMGSMGSNLAKNLLKMGHTVAAVDTDPLACQYAREKIGVMAFEGSAVNTSVLLEAGVRKAGAVIAALQEDALNLALVTLSKHYGVPQIVVRMSDGDFAEPYRLAGATHIISTTELALNRVINAIEYPQVDAMMHFEQGQIEVLKLSIPPNCTIVGRSVAAIAQDPRFPSGTLIIGYQANAHEDLKIPNGNTLLEDGSTILAVTKPELVRQLIDFMGLCQS”, “failed”.
In the case of “MSVPRPMEGRASGSARIYQAGGDQYIEEHVHHHAPGSAPLFGHPWTGPAEPREAAPDSVRMPLVGRAPRVLRDRTDLMERLRAAVAGPGSDIQVLHGMGGCGKTAVAQALFTEAVRDHGRVGLWVNASERVSLRAGMLAVAGDRGATAGELAAAAGGRRAAADLVWHYLDQSAQPWLLVLDNADDPAVLEEGSWLRPSPSGTVLVTTRHATSSLWRAPATSSHRLGVLPLEDATLVLRDLAPDAGTRESARKVARRLGCLPLALTLAGAHLAHQLLESWSMDEYDRKLTEESTALVDRGASATGGGQSRHLVGRTWQLSLDGLAERGLPEATALLRLLSCWAADPVPLSLLMPAAQGGVGLEHLDPPLAAPRVEPALRALLDHSLIEMVETDGHRCVKAHGVLLDSVAGSVPDAERALLAAAAGGLLRAALPPEGAASPRARSQVRLLAPHATGLLHRSHRHDLVTAESVRLAVRLARLVYEAGDWTAALALASTAAKTAAEHLGAEHPVTIEARSGQGTVLFRLGRYAEAADLLRPVQQEALRTLGPHDERTLDAAYELQRVLHRLGDLAHARTLLDTVLDGRRQALGEDHVATLKTRCELLELRLAQDEFDGYTAAAGELAGECERRLGPEHLVTVWARDALARGLLRSGRGAEAEELFRRVLAGQRAGYGDDHPLVYGVLIQLSRAQYAQGKRERAAESAREVAEGRAVILGEDHPETVAARAWYTEVLATPPAPDDLVG”, the protein production entry is on record as “failed”.
In the case of “MTLLNDIQVWTTACAYDHLIPGRGVGVLLDDGSQVALFRLDDGSVHAVGNVDPFSGAAVMSRGIVGDRGGRAMVQSPILKQAFALDDGSCLDDPRVSVPVYPARVTPEGRIQVARVAV” it was “failed”.
In the case of “MKAKREQILIRTSWISTIGNAILSTSKIIVGLWAGSLAVLGDGIDSATDVIISIVMIFTARIISQPPSKKYVFGYEKAEGIATKILSLVIFYAGVQMLISSIGSIFSEEAKEIPSAIAIYVTIFSIIGKLLLALYQYKQGKKIDSSMLTANAINMRNDVIISSGVLLGLIFTFIFKLPILDSITGLIISLFIIKSSIGIFIDSNVELMDGVKDVNVYNKIFEAVETVPGASNPHRVRSRMIGNLYMITLDIEVNPQITITQAHQIADAVEKSIKSSIDNVYDILVHVEPAGECQTDEKFGIDKGMVN” it was “failed”; in that of “LEYSNIPITDNNKVKLIKSGREKFEDLFEAIRGAKHHIHLEYFNFRNDSIANALFDLLGEKVKEGVKVRAMFDAFGNWSNNKPLKKRHLKAIREKGIEIVKFDPFKFPYINHAAHRDHRKIAVIDGKIGYTGGMNIADYYINGLPKIGTWRDMHIRIEGDAVNILQEIFLDIWNKTTKQNIVGEEYFPNHPERADSCNTVISIVDRTPKRNSRMLSHT”, “failed”; in that of “FNGWSWSLGGNIGFNKSKIGDLGFAPTDFGTLKNVRGYQGTSIGDHFGIANLFIAGEAPGLFFGYKTQGIIQPEDIVDGKVAYTAADGSTKYYSSSVANDLGAGNIKAVDMNEDGVVDEKDKTILGNPNPDFTYGFQTRIAWKDLSVSASFNGVHGNQILNTNIRYYTPSRQAGNLTQEAFRNIWTEENHSNLYPSATANVKNVVYDRYIEDGSYLRCSDITLNYTLPKSWMKKIGFQNIGVFASVKNAFVITNYSGYDPEINSFAFDGLRPGIDMNAFPSQRSYVFGLNVAF”, “failed”.
Regarding “MGGNETRELPIINLSDKNLKQNTELWSFTRDSVREAMEHHGWFVAEYNNFPTGLHQSILEAAKELLDLPVEIKLKNENHKAGHGYITMMSDGQPVHEGLGIDQVNDVQQCRGFSRLMWPDDHDDNDRFCETVHAYAKMQAELEQLVIRMLFESYNVEKYTEKYIGGTRYLLRLLKYRRLPNGEPNRKFISHTDKSFISILHQNHITGLMLKSEKEDVWYHFTPSPTRFVVIAGDAIMAWSNDRIKACYHKVEMESVEMRYSLGFFSFQEGMISTPEEMVDKDHPLAYNPFHHDGLLEYYETLEVHLKAHRTMTKAYCGIP”, the protein production result was “failed”.
In the case of “MSLILCIDVGNSHIYGGVFDGDEIKLRFRHTSKVSTSDELGIFLKSVLRENNCSPETIRKIAICSVVPQVDYSLRSACVKYFSIDPFLLQAGVKTGLNIKYRNPVEVGADRIANAIAATHSFPNQNIIVIDFGTATTFCAISHKKAYLGGAILPGLRLSADALSKNTAKLPSVEIIKTESVVGRSTIESIQSGVYYGVLGACKELIQRIHHEAFNGDQILILATGGFASLFDKQGLYDHLVPDLVLQGIRLAAMMNTAEGHHHHHH” it was “not failed”.
For the sequence “MNLLIKINPVTRIIALMVLTTPLLLSLDVMSAAIALVATIILAPFAGVTWKMLLKRGWMLFLMAPVAALSMALYGRPDGKEYFSFLLIHVTDNSLALAAAIGLRVLAIGLPVVVLIARIDPTDLGDGLAQLLKLPERFVIGAVAGSRLMTLFREDWYSMSRARRARGIADQGKIKHFFTMTFGLLVLSLRRGSKLATAMEARGFGRTTGRTWARESTVGARDLVLILVCAAISAIALTVSIQTGFFKFLGT”, the protein production result is given as “failed”.
As for “PLPEGMQQQFEDTISRDAKQQPTWDRAQAENVRKILESVPPIVVAPEVLELKQKLADVANGKAFLLQGGDCAETFESNTEPHIRANVKTLLQMAVVLTYGASTPVIKMARIAGQYAKPRSSDLDGNGLPNYRGDIVNGVEATPEARRHDPARMIRAYANASAAMNLVRALTSSGTADLYRLSEWNREFVANSPAGARYEALAREIDSGLRFMEACGVSDESLRAADIYCSHEALLVDYERSMLRLATDEEGNEELYDLSAHQLWIGERTRGMDDFHVNFASMISNPIGIKIGPGITPEEAVAYADKLDPNFEPGRLTIVARMGHDKVRSVLPGVIQAVEASGHKVIWQSDPMHGNTFTASNGYKTRHFDKVIDEVQGFFEVHRALGTHPGGIHIEFTGEDVTECLGGAEDITDVDLPGRYESACDPRLNTQQSLELAFLVAEMLRN”, the entry is “failed”; as for “MQGGSSGIGYGLKYQARCISDVKADRDHTSFLTGTLSLKEENEVHLLRLSSGGSELLCEGLFSHPNEIWDLASSPFDQRIFSTVFSTGDSYGAAIWQIPEPYGQSNSSTLECVASLDAHVGKINCVLWCPSGNSDKLISMDEQNLVFWSLDSSKKSAEVLSKESAGMRHSLSGGAWNPHDVNSVAATSESSIQFWDLRTMKKNNSIERAHVRNVDYNLKREHILVSADDESGIHLWDLRKTKFPVQELPGHTHWTWAVRCNPEYEELILSVGTDSAVNLWFASASSEHKTSESPVEASRQRVNPLLNSYTDYEDSVYGLAWSSREPWIFASLSYDGRVVIESVKPFLPRR”, “not failed”; as for “MSRSFFAVLRDGKRYADKWPHHSVVAAMAESRIIPITRKAISWTPGIAVLNAALTWQFMPQEQLAPGLMLSLIMLSLPLQGLYWLGWRSRQPLKPMLRNWYKELRDKLRKQGVECQPQGEKGPEYMDLAIILRKALETLPPEEH”, “failed”.
